From patent US20230242654A1 (published 2023)

Target: anti-CD19 CAR having an scFv derived from FMC63 (expressed on T cells) (Mus musculus (Mouse), UniProt P01644 1-106)
Assay: cell-based or functional assay

Chain of anti-CD19 CAR having an scFv derived from FMC63 (expressed on T cells) (VH, as listed by the source, chain 1 of 2): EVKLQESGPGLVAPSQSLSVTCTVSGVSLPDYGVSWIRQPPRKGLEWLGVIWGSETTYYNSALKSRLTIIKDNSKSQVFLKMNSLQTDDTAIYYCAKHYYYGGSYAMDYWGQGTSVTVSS
Chain of anti-CD19 CAR having an scFv derived from FMC63 (expressed on T cells) (P01644 other isoform, or with tags, fused parts or gaps, chain 2 of 2): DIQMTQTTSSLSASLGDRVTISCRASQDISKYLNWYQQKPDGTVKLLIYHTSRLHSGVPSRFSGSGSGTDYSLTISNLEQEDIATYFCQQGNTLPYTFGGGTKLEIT

fold expansion of CAR-expressing (EGFRt+) CD4+ T cells cultured alone with anti-ID B-1 conjugated beads, up to 9 days: > 60 fold
B1: Anti-ID B-1 (FMC63-derived scFv-specific anti-idiotype antibody) (antibody, mouse IgG2a, kappa, V domains shown)
VH: EVQLQQSGPELVKPGASVKMSCKASGYTFTDYYMKWVKQCHGKSLEWIGDINPNNGGTDYNQNFKGKATLTVDKSSSTAYMQLNSLTSEDSAVYYCAREGNNYGSRDAMDYWGQGTSVTVSS
VL: QIVLTQSPALMSASPGEKVTMTCSASSGVIYMYWYQQKPRSSPKPWIYLTSNLASGVPARFSGSGSGTSYSLTISSMEAEDAATYYCQQWSSNPLTFGAGTKLELKR
